In the supplement of paper PMC9170038:

Test system: MS2 coat protein
Assay: apparent KD of MS2 coat protein; designed switch direction (-1 OFF switch, 1 ON switch): 1; higher = weaker reporter binding
How it was run: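 Each step of the titration lasted 0.8–1.5 h at the lowest concentration and 10–20 min at the highest. The protein, SNAP-549-labelled MS2 coat protein, went from 0.7 or 1.5 nM doubling to 3 µM over RNA switches transcribed on Illumina chips by stalled E. coli RNA polymerase. Normalised cluster fluorescence was curve-fitted, and the per-design median over clusters is given as apparent KD.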

[1] = input ligand: microRNA oligo, concentration not stated
[2] = Eterna round: R95, input ligand: FMN 200 uM
[3] = Eterna round: R95, input ligand: microRNA oligo, concentration not stated
[4] = Eterna round: R95, input ligand: none

Sequence | apparent KD of MS2 coat protein (input ligand: FMN 200 uM) [nM] | apparent KD of MS2 coat protein [1] [nM] | apparent KD of MS2 coat protein (input ligand: none) [nM] | apparent KD of MS2 coat protein [2] [nM] | apparent KD of MS2 coat protein [3] [nM] | apparent KD of MS2 coat protein [4] [nM]
GCUGCAAGGGCAGGAUAUGGGUUCAGAGCAGAAGUGCGCUUUGAUACAUGAGGAUCACCCAUGUCCCAGAAGGGCCCAAGCGGC [Veribe] (Eterna round: R96, puzzle: Same State NG 2) | 17.7 | 98.3 | 159 |  |  | 
GAAAUAUAACAUGAGGAUCACCCAUGUACAUUGGUACGGCGGAAGGAUAUGAAAGACAUGGUCAAUUAGAAGGUCCUAUCAAAA [Eternabot solution 50] (Eterna round: R96, puzzle: Same State NG 3) | 102 | 114 | 139 |  |  | 
GGUCCAGCCUGAGCUGGACCGAAGCAUGUACAUGAGGAUCACCCAUGUCAUGUACAAGCUUUUUGCUCGUCUUAUUG [JL-shm-2.09 JL Mod] (puzzle: Sensor for hsa-mir-208a) |  |  |  | 307 | 14.9 | 285
UUGAAGAAUUAAGGAUAUUGAGUACAUAUGUAAAACAUGAGGAUCACCCAUGUGGGUUGCGGUAUCGAGAAGGUAAAUUACUAG [Mat - same State NG 2 - JL mod - D69] (Eterna round: R96, puzzle: Same State NG 2) | 69.9 | 66.2 | 65.9 |  |  | 
UGAAUAGUCACAGGAUAUCAUGCGAAAAUUGCGUGAGAAGGGUGGAUGUUGUGCUCAAAGUUCUACAUGAGGAUCACCCAUGUU [SameState NG1 #43] (Eterna round: R96, puzzle: Same State NG 1) | 61.2 | 64 | 63.3 |  |  | 
AUUAUUUCAUGAGGAUAUGGCACCUUAUUGGUGCCAGAAGGCAUGUCAUUAGACAUGAGGAUCACCCAUGUAUUAUAUUAUAUA [Fiskers NG1ss - 13] (Eterna round: R96, puzzle: Same State NG 1) | 41.5 | 392 | 534 |  |  | 
CUGCUCGUGUGAGGAUAUGCCGCCGUUUCGGCUGCAGAAGGUGCUACGUAACAUGAGGAUCACCCAUGUCUCUGUUGUUUCGUU [salish99_SSNG1_r04_949] (Eterna round: R96, puzzle: Same State NG 1) | 37.4 | 35.2 | 34 |  |  | 
AAGAGGUCCGCAGGAUAUACCCGGGCUCGCCGGGUAGAAGGGUGAACCUCAUAACCCACCACACACAUGAGGAUCACCCAUGUA [Tedile] (Eterna round: R96, puzzle: Same State NG 1) | 113 | 219 | 4.57 |  |  | 
AGUCCAGCCUGAGCUGGACAAAAGCAUGUACAUGAGGAUCACCCAUGUUCAUGUACAAGCUUUUUGCUCGUUUUAAA [Zipper 52 - 8] (puzzle: Sensor for hsa-mir-208a) |  |  |  | 523 | 13.5 | 546
AUUAAACAUGAGGAUCACCCAUGUCAACAAAGUCGAGGAUAUGGGCAAAUAAAAUAAGUACCAGAAGGCGAAUAAU [salish99_ss1_r3_066] (Eterna round: R96, puzzle: Same State 1) | 21.4 | 66.1 | 103 |  |  | 
GAGUGGAAGUAAGGAUAUAUAAUGAUAAUCACAGUAGAAGGUACUAACAUGAGGAUCACCCAUGUAGGACUAUACCAGAGAGGG [Parity 44 - Jieux - Same State NG 1] (Eterna round: R96, puzzle: Same State NG 1) |  | 12.3 |  |  |  | 
AUCUCUGUGCCGCAGGAUAUACCAACGGCUACAUGAGGAUCACCCAUGUCAUACCGUCGAAAAUGGUAGAAGGGUGUGCACGAGC [Leesmala] (puzzle: Same State 2) |  |  |  | 16.4 | 45.5 | 61.3
GGAGGACAUGAGGAUCACCCAUGUGGAUGGGCGCUAGGAUAUGCGAGAGGAGGGAGUGGAGCAGAAGGAGUGGGUU [JR_SS1_Sub043] (puzzle: Same State 1) |  |  |  |  | 50.3 | 
UGGUACAUGGGAGGAUAUGGGUUGAUAACAUGAGGAUCACCCAUGUUAAAUAUGCCGAGAGGCAACUAGAAGGCCCAUGUACCU [JL SSNG1 3.00] (Eterna round: R96, puzzle: Same State NG 2) | 28.5 | 380 | 644 |  |  | 
CCGUAAUAUGGAGGAUAUGGAGCCUUAUUGGCUCCAGAAGGUCAUAAAACAUGAGGAUCACCCAUGUCGGCGGUCAAUAGACCG [Eli NG1ss - 77] (Eterna round: R96, puzzle: Same State NG 1) |  | 42.6 |  |  |  | 
GGAAACUUGAGAGGAUAUGUAGAGGAUCACCCUACAGAAGGCUCAAAAGAGAGGAUAUGUAGAGGAUCACCCUACAGAAGGCUC [pwkr ssNG DX.11] (Eterna round: R96, puzzle: Same State NG 1) | 24.9 | 23.7 | 33.1 |  |  | 

Sequence | apparent KD of MS2 coat protein (input ligand: FMN 200 uM) [nM] | apparent KD of MS2 coat protein [1] [nM] | apparent KD of MS2 coat protein (input ligand: none) [nM] | apparent KD of MS2 coat protein [2] [nM] | apparent KD of MS2 coat protein [3] [nM] | apparent KD of MS2 coat protein [4] [nM]
ACAUGAGGAUCACCCAUGUAUUUAUUUGAAUCUUAAGUUACGUAGGAUAUCGUGUAUACUAUCAUCGAGAAGGACGAUGUGAUA [JR_SSNG3_Sub068] (Eterna round: R96, puzzle: Same State NG 3) |  | 12.5 |  |  |  | 
GUGGCCCAGGCACAGGAUAUGUUUCUCGUAACAUGAGGAUCACCCAUGUGCCUAUGAGAUUUUUUGCAGAAGGGUGCACGCCACG [JL Atiinbe mod 02] (puzzle: Same State 2) |  |  |  |  | 134 | 
UAUUAAGCUGUAGGAUAUCUAGGAUAUGGACGAGGAUCACCCGAGCAGCAUCAGCGCACCAGAGGAGAGAAGGACGCUUUGGAA [pwkr ssNG2 2F5 2FMN.3] (Eterna round: R96, puzzle: Same State NG 2) | 463 | 882 | 916 |  |  | 
AUUAAACAUGAGGAUCACCCAUGUCAACAAAGUCGAGGAUAUGGGCAAAUAAAAUUAGAACCAGAAGGCGAAUAAU [salish99_ss1_r3_063] (puzzle: Same State 1) |  |  |  | 29.2 | 167 | 229
AGAUGUUAAUUAGGAUAUGGGCACAUGAGGAUCACCCAUGUAACGUAGAUACGAUGUGGUCAAGUCUAGAAGGGAUAGCUAACA [SameState NG2 #77] (Eterna round: R96, puzzle: Same State NG 2) | 72.5 | 59.3 | 70.6 |  |  | 
GUGGUCAGACAUGAGGAUCACCCAUGUGGAAUAAAUAAGGGUUAGGAUAUGGAAUAUAGGAUAUACCAGAAGGGAUGGUUGGUG (Eterna round: R96, puzzle: Same State NG 3) | 123 | 108 | 111 |  |  | 
GUAGCAUACCGAGGAUAUUCAUAUAAUAAUAACAUGAGGAUCACCCAUGUAAGGCGAAAGCCUUGGGAGAAGGCGGAAUGCUAC [Xeonanis - 20 Mod60] (Eterna round: R96, puzzle: Same State NG 2) | 11.6 | 30 | 63.6 |  |  | 
AGAGCCGGCACCGAGGAUAUUCAUAUUAAAACAUGAGGAUCACCCAUGUAGGCCAGAAGGCCUUGGGAGAAGGCGGAUCGGCUCG [Xeonanis - 7] (puzzle: Same State 2) |  |  |  | 28.3 | 524 | 827
GGAAUAUUUACAGGAUAUCAUUUGUAAAUUCGAUGAGAAGGGUAGAUGUCUUACACGACGUGUUACAUGAGGAUCACCCAUGUU [SameState NG1 #7] (Eterna round: R96, puzzle: Same State NG 1) | 146 | 142 | 146 |  |  | 
UGGAGAAAUCAAGGAUAUGCUACCGUUUCGGUAGCAGAAGGUGAUCACAUGAGGAUCACCCAUGUAUGCAUGCGUGAGCGUGCU [JL SSNG1 3.54] (Eterna round: R96, puzzle: Same State NG 1) |  | 12.6 |  |  |  | 
CUGAGCAGUCAAGGAUAUCACGUCGAAUAGACGUGAGAAGGUGAUUAAUACAUGAGGAUCACCCAUGUAAUACAUGAAGCUCAG [SSNG1/11-A1] (Eterna round: R96, puzzle: Same State NG 1) | 25.6 | 33.5 | 46.6 |  |  | 
GCGAAAUGAUGUGACAUGAGGAUCACCCAUGUAACCUCAUGUAAGGAUAUCGGAAAAAAAAAAACCGAGAAGGUAUGGUCACGC [AK SSNG3-V2-27.1] (Eterna round: R96, puzzle: Same State NG 3) | 124 | 86.4 | 216 |  |  | 
UGUUGUAUUACAGGAUAUCUAUUAUUUUUACUUAGAGAAGGGUAUUCACAUGAGGAUCACCCAUGUAUAUACGAGGAAGUUGUG [JMF's solution 27] (Eterna round: R96, puzzle: Same State NG 1) |  | 38.2 |  |  |  | 
CCGAUGGUAUACUAGGAUAUGGGCGCCCUUACAUGAGGAUCACCCAUGUUUACACAAAUCCGCGGCCAGAAGGAGUUCAUGGGAG [Orgere] (Eterna round: R96, puzzle: Same State 2) | 134 | 85.6 | 112 |  |  | 
UUUGGGUGGCUGGAGGAUAUUCUAGUGGUUACAUGAGGAUCACCCAUGUGUCGCGCGGUACGCGAGGAGAAGGCUGGCGGCCGUU (puzzle: Same State 2) |  |  |  |  | 83.5 | 
UAUCCAUAGAUAGGAUAUCAGUAUACAUGAGGAUCACCCAUGUUAUAUUUGGUUUUAAGUUAGUCUGAGAAGGAUCUUGAUGAA [SameState NG2 #3] (Eterna round: R96, puzzle: Same State NG 2) | 12.4 | 11.1 | 15.6 |  |  | 
